This data set in a line: label from the status in PepcDB records.
For the sequence “AVPGEVRLQVKDLRSVGGSALNGVNMTLRAGQIYGIAGVGGNGQAELANALMGLPQATEGDIHLAPFGDLRNASAEQRRQLRIASIPADRYGAALAGSLSVAENFGIGNIHSGHYGSFWRLGYKRLKQDAQRAVESFDVQGVRSLDQKAALLSGGNAQKLVIAREFSRDPQLVLVHSPSRGLDVRATQAVHDRLRAARDAGAAVLLISEDLDEVLALADRIGVMNGGRIVAEFDHPADRQAIGKAMVSHD”, the protein production entry is reported as “failed”.
To “AWKGEVLANNEAGQVTSIIYNPGDVITIVAAGWASYGPTQKWGPQGDREHPDQGLICHDAFCGALVMKIGNSGTIPVNTGLFRWVAPNNVQGAITLIYNDVPGTYGNNSGSFSVNIGKDQS” belongs “not failed”; to “AYSELQMLSPSERQCVETVVNMGYSYECVLRAMKKKGENIEQILDYLFAH”, “not failed”; to “CDLERYPLTDLSEETFWNSESNAELALTSLYRGSLTDGVEYNPSDWWSYHGMIMMEHLSDNAFDRRGENNPFFKISSGNLTADNAFIKRYWETSYKRIGYCNRFLVGIQNSSESEKKTRMIAEARFLRATQYFYLASYFKNVPLVENVLTGEEANNVTKTSQADILKWCVTEFTAAAADLPRFSAIPAGEAGRACKQAALAFLGRTCMLQKDWKSGAKAFHDIMELGDNAINANYQELFYPSTGTSNKENIFYIQYLENYLGTGLPQHALSAKDGGWSLVNPAADLYESYEFKDGTPFSYDDPRYDPSNLGKDRDPRLDYTIYYNGAIFMGTEYKMSPDYSAAKKEKLDYTSEASRTGFMMRKYFEESTPINDVQSANGLTPVIRYAEVLLGYLECLVEDNQTITQGILDETINAVRGRASVNMPPVTEVTPAKLREIVRHERRIELAMEGIRYWDIMRWGIAHEVLSQKIWGAPYPGSTQYATTTKEVDPTGNYRWYVGKRAFRNPTDYTWPIPQSEQNINPNLRD”, “not failed”.
As to “CMPYRVEIFDTSHHSSSQCVGGMVVYENNAFQKNSYRRYHLKGSDEYTQMSELLTRRALDFAKEPPPNLWVIDGGRAQLNIALEILKSSGSFVEVIAISKEKRDSKAYRSKGGAKDIIHTPSDTFKLLPSDKRLQWVQKLRDESHRYAINFHRSTKLKNMKQI”, the protein production entry is given as “failed”.
As for “CTNYSLLKLAGDVESNPGPTIFSKASADLNALSTSLGELTGMLKDLKAKAETYSPFYKMAKMLFKLATLAVAAMRTKDPVVVVMLIADFGLEVFDTGFFFSYFQEELQPYMKTIPGKISDLVTDAATAAAQIPKGVYSFVSSFFETPEGAVEKQ”, the protein production entry is given as “failed”.
With “DARVQVMGIDAGGTMTDTFFVKENGSFVVGKAQSNPEDESLAIYNSSQDALSHWKSDVSKVYPELVTCVYSGTAMLNRVVQRRGMEVGLICNKGFEQMHSMGRALQSYLGYALEERLHINTHKYDDPLIPLKRIRGVTERTDVKGQVVIPVRQEEVKVAVKELLEAGAKAIVICLLQSHKNAESERIVRDIALKEIEKLGKN”, the protein production entry was “failed”.
In the case of “DAVELFKKANAMLDEDEDERVDEAALRQLTEMGFPENRATKALQLNHMSVPQAMEWLIEHAEDPTIDTPL” it was “not failed”.
To “DDLEVGKNIDESAYSGIYENNAYLRDGKSNLVSKVVELHGETYATTVKMGLSKTPNTATSAKVKIDAAYLETYNKAHNTDFALYPQDLVTFANEGILTVNANTKSAEVEMTIRAGEGLQEDKTYAIPVAISDQSSDITIKDEDAKHCIYLVKDMRNAGDAYKGEGVMQGYLFFEVNDVNPLNTLSFQLENGKLLWDVVVLFAANINYDAEAGRPRVQCNPNVQYLLDNNETLLQPLRRRGVKVLLGLLGNHDITGLAQLSEQGAKDFAREVAQYCKAYNLDGVNYDDEYSNSPDLSNPSLTNPSTAAAARLCYETKQAMPDKLVTVFDWGQMYGVATVDGVDAKEWIDIVVANYGSAAYPIGQMTKKQCSGISMEFNLGGGGSLSASKAQSMIDGGYGWFMGFAPSPAKYGSVFSRLQGGGEVLYGSNVAAPTIFYKKNDPTPYKYPDDL” belongs “not failed”; to “DDNERLSKVEKARQLREQVNDLFSRKFGEAIGMGFPVKVPYRKITINPGCVVVDGMPPGVSFKAPSYLEISSMRRILDSAEFIKFTVIRPFPGLVINNQLV”, “not failed”; to “DELEAAAESLEDGSLILEGSTDIRHVSLLLNRDLVDESEEYSTLSGYILFHLGRLPENGQKMHADGYIFEVVTMDGHKIEKVHIVADP”, “failed”.
In the case of “DETQVLATVTQELANLFQLESCYIELYNTDCTAVSVVCEYAANQPTYQGLTRQIADFSEIYQPLLQKQHFQTIEIVPGWHPQLLVITQLACPIFDAQGMLGNLWLIRPIQQMLSQSEICLVQTLANLCAIAIRQAKLDATNQARLKKLEQRESLTNKFLRKLSQELRTPITSISLAAQTLETVLSPTI” it was “failed”; in that of “DGSFRRWSLRQVPEVQGAFMAMDVNSGRVLAMQGGFSYQYSVFNRATQATRQPGSSFKPFVYAAALDSGFTPATIVIDAPIEVQTAQGLWTPKNASGKYYGPTPLRTGVEQSRNLMTVRIAQEIGMDTVASYAERFGVYDRMGQFLANALGAEETTLFKMVAAYAMFANGGERVQPTLVDRVQDRFGRTIYRHDQRICDDCAQPLLPEGRAPHITSKRERVMDAITAYQLTSMMEGVIKRGTGRGINLPVPVAGKTGTTNDAKDVWFIGYTSNIVAGCYIGYDQPRSMGSASGGGFCGPVFQSFMTKAVKKYGGSEF”, “failed”; in that of “DHLILLPGWGLGSAPLEPLRDALHEREPHLNVLIEPLPSLDDAADWLDELDDNLPRDSWLAGWSLGGMLAGELAARRGDDCRGLLTLASNPCFRVREDWPNAMPAETFEDFFEAFLLEPHLTRKRFTLLVSQGARDPRTLARQLQVALPQLEREALVAGLQLLGQLDTRAALENFRGPQLHLFAEADALVPLAAAEALLEWLPDVEVSTLAASHGLPLECPDEVAGAILRFLRE”, “failed”.
With “DKGTALLVNRSLRFGERTAEELMTPRVKIVTLSTTDTVADLIDTASRTGFSRFPVVESDLDDAVGVVHIKHAFAVPAHRRRTARLNSLAQKVPVVPSSLDGDALMERIRSDGMQVAFVVDEYGGTAGMVTMEDLIEEIVGDVR”, the protein production result is “failed”.
In the case of “DLAPSRVESLTLIMTSSGAQGLPMPNAALLQLLARRGAPDREVALEQQADLLAALGSPQVKDDREQLLHQAAVSYDRAFNPEGVKRQIMAILAEPSRVELLNRLRLPVLVVHGTADPLLPVMHGVHVAAHIQGSQLRLIPGLAHRFQEAFKAPLLGAVLPYLKA”, the protein production result is “failed”.
“DMAFQLRTERLDLNMWEESDAVWLRELIGERGVEMPTVESVRNDLIEKRKIAVENGISLLTIRRRDEGDFIGYCGLIIGRSTLEEPEIAYELFRSAHRMGYATEAASAVLEAAIATGRKRLWSTVGAWNTASFRVLEKIGFKR”: the protein production result is listed as “failed”.
In the case of “DMLLVDEMKRGMAQGNASGKHLIILHTKGSHFNYTQRYPRSFAQWKPECVGVDNKCSKAELINSYDNSVTYVDHFIVSVLDQLRDKKAIVFYAADHGESINEREHLHGTPRKMAPPEQFRVPMMVWMSDKYLENPDHAAAFAHLQQQAAMKVPRRHVELYDTIMGCLGYTSPDGGINENNNWCRWKK” it was “failed”; in that of “DNHGVVHCVESAPAAVSAGKRALSQLVEDQKIVFHTETVERAMNQLPAPTLVVLDPPRVGAGAETVRAIAQSGPQAAIHIGCDPATFARDIAEWSRNGFILEKLRVFDAFPGTHHCETIGLLTKKN”, “failed”.
To “DNMEAVKTFNSELYSLNDYKPPISKAKMTQITKAAIKAIKFYKHVVQSVEKFIQKCKPEYKVPGLYVIDSIVRQSRHQFGQEKDVFAPRFSNNIISTFQNLYRCPGDDKSKIVRVLNLWQKNNVFKSEIIQPLLDMAAG” belongs “not failed”; to “DPLDNLVAPTAAAAAAAAGKKKQPSAAAAAATKTTANKVANSNNKANAGSNIGGPNAKKPNQAEKENKPNNALNKTDGKKFTPSADNKQQQFNNNASSNYK”, “failed”.
To “DPQFHREGDDIVVEREIKFTDAALGASLDVPTLEGTKRVKVPAGIQSGTKIRLKGLGFPHMGKTAKGDLYVHINVSVPRSLSADQKAILEKLREAGL” belongs “failed”; to “DPSPQTIYKWIKDNISPKLHVDKGFVNILMTSFLQYISSEVNPPSDETDSSSAPS”, “failed”.
In the case of “DQDTLVQRAEHIPAGKRTPMCAHCNQVIRGPFLVALGKSWHPEEFNCAHCKNTMAYIGFVEEKGALYCELCYEKFFA”, the protein production result is listed as “not failed”.
For “DQHRPATLEALLAGVSLLLPMLDAIPNAAIFIKDSAARYALANNTLVQRCGLKRLQPLLGKTSAEVFPAQFGPGYTEQDRRVLKEGLVLEDQLELHLYGSREPGWCLTHKRPLYNPAGEIIGLVGISVDLQSAADSHP”, the protein production entry is listed as “failed”.
In the case of “DSFKTKSGKELTITFIKHGSLMLTYDNHSIQVDPVSEYADYTTFPKADIILITHEHGDHLDPKAIQAVEKSDTEIIANENSQKKLGKGKVLKNGDTDTSISYMKIEAVPAYNTTPGRDKYHPRHRDNGYILTFDGLRVYIAGDTEDIPEMKDLKDIDIAFLPVNQPYTMTVSQAAKAARMFSPKILYPYHYGDTKIGELKDALKDSGIDVRIRELQ” it was “not failed”; in that of “DSLKAEVNTLFARFDEQPLAAASIAQVHTAALFDGREVIVKVTRPNIRTQILQDFEIISWLGQSLESRLEAARALHLSEIIQDYRQIILNELDLTLEADNTRRMRHYFTGSSMMYVPEVY”, “not failed”; in that of “DTVANASGPLMVEIVKTPGSALGISLTTTSLRNKSVITIDRIKPASVVDRSGALHPGDHILSIDGTSMEHCSLLEATKLLASISEKVRLEILPVPQSQRPLRPS”, “not failed”.
Turning to “DVKEFCKKSLRVRKRQLKDLLYSLEDDNKELFERVIKLFENFKNRDEIFYEKISEEIVWTVKKNILFVNIEEGILKPQSKLDLLAIREILDEIKT”, the protein production entry is recorded as “failed”.
Turning to “DVTERRRAREALQESEARMKGIASNVPGMVFRLERPRAGAFSDFAYISEGSEALVGYSARELIESGRGIRGLVHPDDRERYWSSQMAALDENRDWHWQGRILTRQGELRWADIKASARCFEDGRAVWDGVVWD”, the protein production entry is recorded as “failed”.
To “DVVVVGSGVAGPIVARDVAKAGFSVLLVDKKPAIGTPKQCAEGINVNVFKEFDIPYDKRFINREIYGARIYSPSGYTAELRYDKVSGVILERKVFDKMLAYYAAKAGADVWARTEVIDLLRKEGKIMGVKAKHEGELVEIEAKIIVAADGVESTVARLAGINTYAPPHEFDSAYEYEMIIEGYDPDLIHLWFGNEIAPRGYVWVFPKDEDRANVGIGINSDNEKTAKYYLDKWLKENNIPTKKILEINVGLVPVGGFVRELVKENVAVVGDAARQVNPVHGGGMYEAMKAANILAKWIVKALEEENLELLKNYTKEWWEVEGPKMERLLKLRRAMEKLTDEDIDVFVQLLGGTDLEKLAGGNYFEVVKALMKHPKVLMSKRRLEILKALL” belongs “failed”; to “EDYSCFIFRHFPQVQIHPHAQRAAQAAEAAAAQGQFWLMNDTLFDHQQRLENGYLVEYANDLGLDIPQFLKELAKQVHVDRIKKDIEGGLQSGVMAVPALFVNGILYRDCWNIKQLIATIIASSY”, “failed”; to “EEKVVAEQQADGTWLMDGWISIRKASNLLEHDLVDEAERYSTLGGYLLWQFGYIPAAGEQITVDGLIFEIVSVNKHNIGKVRVHRTQ”, “not failed”.
As to “EEKYVTVQPYTSQSKDEIGFEKGVTVEVIRKNLEGWWYIRYLGKEGWAPASYLKKAKD”, the protein production result is reported as “not failed”.

The values above are taken from a protein production outcome set (Wang et al. 2014).
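Further: failed if final PepcDB status was selected cloned or expressed and not failed if soluble or beyond.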
